# Measured values from the supplement of paper PMC9732359.
# ± gives the uncertainty stated by the source.
# Test: protein stability index of a GFP-peptide fusion (yeast GPS) (PSI 1-4); higher = more stable; sorted into four equal gates, so the index is relative within each strain
# Outline: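 The protein stability index combines read frequencies across sorting gates, each weighted by its gate number and then summed. To obtain those frequencies, a pooled yeast library of GFP fusions to tiled 17-residue yeast protein peptides, on a plasmid also expressing Cherry, was grown to mid-log phase in leucine-free medium. The cells were sorted into four equal gates by GFP/Cherry ratio before plasmid amplification by PCR and Illumina sequencing.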
sequence,measurement,setting,value
SLPEFFTNRIPSKTPEV [SWI3],protein stability index,doa10∆,2.56 ± 0.066
same,protein stability index,pdr5∆,2.53 ± 0.054
same,protein stability index,san1∆,2.65 ± 0.062
same,protein stability index,ubr1∆,2.66 ± 0.059
SLPEGLLKSLWDYVKKN [TAF14],protein stability index,doa10∆,3.01 ± 0.17
same,protein stability index,pdr5∆,2.02 ± 0.079
same,protein stability index,ubr1∆,3.13 ± 0.093
SLPLIVFLRNRLKYALN [RPS4A],protein stability index,doa10∆,1.4 ± 0.059
same,protein stability index,pdr5∆,1.58 ± 0.092
same,protein stability index,san1∆,1.48 ± 0.12
same,protein stability index,ubr1∆,1.7 ± 0.043
SLYAYCHSKLRGQQVEN [GRR1],protein stability index,doa10∆,2.51 ± 0.1
same,protein stability index,pdr5∆,2.52 ± 0.092
same,protein stability index,san1∆,2.54 ± 0.1
same,protein stability index,ubr1∆,2.6 ± 0.097
SLYKVSFLEKPKFAIQD [YMR129W/POM152],protein stability index,doa10∆,2.93 ± 0.11
same,protein stability index,pdr5∆,2.68 ± 0.12
same,protein stability index,san1∆,2.77 ± 0.071
same,protein stability index,ubr1∆,2.53 ± 0.13
SMHLLKDWTDTFVYILE [SRB8],protein stability index,doa10∆,3.06 ± 0.057
same,protein stability index,pdr5∆,2.95 ± 0.06
same,protein stability index,san1∆,2.88 ± 0.047
same,protein stability index,ubr1∆,2.97 ± 0.059
SMNNDFQQQQQQQQQQQ [PGD1],protein stability index,doa10∆,2.43 ± 0.1
same,protein stability index,pdr5∆,2.9 ± 0.16
same,protein stability index,san1∆,2.54 ± 0.11
same,protein stability index,ubr1∆,2.29 ± 0.14
SNDEKQKAQDVDVSMQD [RPN13],protein stability index,doa10∆,3.17 ± 0.091
same,protein stability index,pdr5∆,3.27 ± 0.064
same,protein stability index,san1∆,3.22 ± 0.041
same,protein stability index,ubr1∆,3.31 ± 0.044
SNDIIDKPYLLRIVTHL [YDL116W/NUP84],protein stability index,doa10∆,1.93 ± 0.11
same,protein stability index,pdr5∆,1.99 ± 0.09
same,protein stability index,san1∆,3.09 ± 0.15
same,protein stability index,ubr1∆,1.93 ± 0.076
SNIDIRVRVTGGGHVSQ [RPS16A],protein stability index,doa10∆,2.02 ± 0.093
same,protein stability index,pdr5∆,2.31 ± 0.063
same,protein stability index,san1∆,2.78 ± 0.13
same,protein stability index,ubr1∆,2.08 ± 0.044
SNLSQNVVPYHRNTSDY [SWI1],protein stability index,doa10∆,2.65 ± 0.083
same,protein stability index,pdr5∆,3.07 ± 0.086
same,protein stability index,san1∆,2.82 ± 0.1
same,protein stability index,ubr1∆,2.92 ± 0.058
SNNDEDDKDCTIKISTN [RGR1],protein stability index,doa10∆,2.94 ± 0.063
same,protein stability index,pdr5∆,3.13 ± 0.062
same,protein stability index,san1∆,2.89 ± 0.054
same,protein stability index,ubr1∆,3 ± 0.054
SNRLLMDVDQFDFLDDG [YJR042W/NUP85],protein stability index,doa10∆,1.49 ± 0.097
same,protein stability index,pdr5∆,1.37 ± 0.15
same,protein stability index,san1∆,1.69 ± 0.27
same,protein stability index,ubr1∆,1.23 ± 0.099
SNTSTLKNMLYVLSTAV [BRR2],protein stability index,doa10∆,1.57 ± 0.066
same,protein stability index,pdr5∆,1.53 ± 0.09
same,protein stability index,san1∆,1.17 ± 0.18
same,protein stability index,ubr1∆,1.38 ± 0.059
SNVAAIFKGIGGNFKDL [GAL11],protein stability index,doa10∆,2.78 ± 0.11
same,protein stability index,pdr5∆,2.76 ± 0.079
same,protein stability index,san1∆,2.58 ± 0.079
same,protein stability index,ubr1∆,2.72 ± 0.1
SPEQIDASPDSLEALID [YCS4],protein stability index,doa10∆,2.92 ± 0.054
same,protein stability index,pdr5∆,2.88 ± 0.049
same,protein stability index,san1∆,2.94 ± 0.044
same,protein stability index,ubr1∆,3.05 ± 0.041
SPERFATLGIDPPKGIL [RPT1],protein stability index,doa10∆,2.74 ± 0.066
same,protein stability index,pdr5∆,2.76 ± 0.058
same,protein stability index,san1∆,2.42 ± 0.078
same,protein stability index,ubr1∆,2.77 ± 0.045
SPFRPLEKTSRILNFFD [YMR153W/NUP53],protein stability index,doa10∆,2.85 ± 0.13
same,protein stability index,pdr5∆,3.22 ± 0.093
same,protein stability index,san1∆,2.72 ± 0.087
same,protein stability index,ubr1∆,2.83 ± 0.07
SPFSITFSVYHESTSRT [YMR129W/POM152],protein stability index,doa10∆,2.36 ± 0.11
same,protein stability index,pdr5∆,2.55 ± 0.062
same,protein stability index,san1∆,2.76 ± 0.056
same,protein stability index,ubr1∆,2.33 ± 0.06
SPHGLINLNVDDDILII [SRB4],protein stability index,doa10∆,3.1 ± 0.074
same,protein stability index,pdr5∆,3.2 ± 0.075
same,protein stability index,san1∆,3.11 ± 0.054
same,protein stability index,ubr1∆,3.05 ± 0.045
SPLQSSKSKQSFTQGEL [YMR129W/POM152],protein stability index,doa10∆,2.88 ± 0.055
same,protein stability index,pdr5∆,2.8 ± 0.061
same,protein stability index,san1∆,2.73 ± 0.055
same,protein stability index,ubr1∆,2.95 ± 0.05
SPNRLRVRTDDSVLLNR [YML031W/NDC1],protein stability index,doa10∆,2.78 ± 0.22
same,protein stability index,pdr5∆,3.25 ± 0.21
same,protein stability index,san1∆,2.99 ± 0.14
SPRVEKRSFSSTLKSFF [YOR098C/NUP1],protein stability index,doa10∆,1.55 ± 0.067
same,protein stability index,pdr5∆,2 ± 0.046
same,protein stability index,san1∆,2.26 ± 0.078
same,protein stability index,ubr1∆,1.92 ± 0.043
SPTYSPTSPAYSPTSPS [RPO21],protein stability index,doa10∆,3.08 ± 0.045
same,protein stability index,pdr5∆,3.05 ± 0.042
same,protein stability index,san1∆,3 ± 0.032
same,protein stability index,ubr1∆,2.93 ± 0.033
SQEMVPRYFSEAINGFK [SIR3],protein stability index,doa10∆,2.99 ± 0.079
same,protein stability index,pdr5∆,3.01 ± 0.088
same,protein stability index,san1∆,3.14 ± 0.058
same,protein stability index,ubr1∆,2.94 ± 0.054
SQISKAEMEADSLASEL [SMC4],protein stability index,doa10∆,2.75 ± 0.08
same,protein stability index,pdr5∆,3.31 ± 0.16
same,protein stability index,san1∆,3.27 ± 0.071
same,protein stability index,ubr1∆,2.82 ± 0.16
SQLGGNKTVNEAAKPSL [YJL041W/NSP1],protein stability index,doa10∆,3.36 ± 0.11
same,protein stability index,pdr5∆,3.09 ± 0.079
same,protein stability index,san1∆,2.32 ± 0.17
same,protein stability index,ubr1∆,3.26 ± 0.07
SQQLLEILVTELTAQGY [RPN2],protein stability index,doa10∆,1.65 ± 0.077
same,protein stability index,pdr5∆,2.19 ± 0.079
same,protein stability index,san1∆,1.93 ± 0.13
same,protein stability index,ubr1∆,1.77 ± 0.066
SQTPKVEKTEKPKKPKG [RPS30A],protein stability index,doa10∆,3.1 ± 0.07
same,protein stability index,pdr5∆,3.12 ± 0.07
same,protein stability index,san1∆,2.93 ± 0.051
same,protein stability index,ubr1∆,2.94 ± 0.047
SQTTTNDSKEESTTEAT [YLR335W/NUP2],protein stability index,doa10∆,3.02 ± 0.19
same,protein stability index,pdr5∆,2.83 ± 0.21
same,protein stability index,san1∆,2.97 ± 0.21
same,protein stability index,ubr1∆,3.27 ± 0.079
SQVEDFTRIFLPIYDSL [SIR3],protein stability index,doa10∆,2.67 ± 0.059
same,protein stability index,pdr5∆,2.64 ± 0.045
same,protein stability index,san1∆,2.49 ± 0.059
same,protein stability index,ubr1∆,2.36 ± 0.036
SQVYAIRQAIAKGLVAY [RPS16A],protein stability index,doa10∆,2.22 ± 0.069
same,protein stability index,pdr5∆,2.35 ± 0.071
same,protein stability index,san1∆,2.27 ± 0.1
same,protein stability index,ubr1∆,2.42 ± 0.055
SRIVEIFALCIYNSTDS [YML103C/NUP188],protein stability index,doa10∆,1.2 ± 0.093
same,protein stability index,pdr5∆,1.21 ± 0.086
same,protein stability index,san1∆,1.52 ± 0.11
same,protein stability index,ubr1∆,1.2 ± 0.057
SRKRNEEEDAKNPLFSY [RPL31A],protein stability index,doa10∆,2.48 ± 0.078
same,protein stability index,pdr5∆,2.91 ± 0.059
same,protein stability index,san1∆,2.58 ± 0.074
same,protein stability index,ubr1∆,2.12 ± 0.043
SRLCTPIPVQGEIEIKP [RPN13],protein stability index,doa10∆,2.42 ± 0.078
same,protein stability index,pdr5∆,2.58 ± 0.067
same,protein stability index,san1∆,1.7 ± 0.26
same,protein stability index,ubr1∆,2.66 ± 0.1
SRNNTLNVTPSKRPQLG [SIR4],protein stability index,doa10∆,2.96 ± 0.1
same,protein stability index,pdr5∆,2.97 ± 0.093
same,protein stability index,san1∆,2.8 ± 0.096
same,protein stability index,ubr1∆,2.85 ± 0.073
SRRFKNGFQTGSAKATS [RPL37B],protein stability index,doa10∆,3.13 ± 0.078
same,protein stability index,pdr5∆,3.12 ± 0.087
same,protein stability index,san1∆,3.37 ± 0.096
same,protein stability index,ubr1∆,3.17 ± 0.059
SRSSSKNVNIEDITEPK [ESC2],protein stability index,doa10∆,2.92 ± 0.086
same,protein stability index,pdr5∆,3 ± 0.082
same,protein stability index,san1∆,2.67 ± 0.086
same,protein stability index,ubr1∆,2.98 ± 0.15
SRTATWLKNKFAEENIT [BRR2],protein stability index,doa10∆,1.69 ± 0.052
same,protein stability index,pdr5∆,1.73 ± 0.037
same,protein stability index,san1∆,2.23 ± 0.064
same,protein stability index,ubr1∆,1.94 ± 0.053
SRTGPVFDLCWNSLMYA [RRP43],protein stability index,doa10∆,2.64 ± 0.06
same,protein stability index,pdr5∆,2.45 ± 0.048
same,protein stability index,san1∆,2.6 ± 0.048
same,protein stability index,ubr1∆,2.41 ± 0.032
SSAADITMESVHEWEVS [PRP8],protein stability index,doa10∆,3.28 ± 0.062
same,protein stability index,pdr5∆,3.32 ± 0.055
same,protein stability index,san1∆,3.31 ± 0.048
same,protein stability index,ubr1∆,3.29 ± 0.046
SSDAFEKLKVNMEKEKD [YIL149C/MLP2],protein stability index,doa10∆,3.05 ± 0.071
same,protein stability index,pdr5∆,3.19 ± 0.094
same,protein stability index,san1∆,3.33 ± 0.057
same,protein stability index,ubr1∆,3.23 ± 0.062
SSDDLQNCWSLINDSYI [SSN8],protein stability index,doa10∆,1.94 ± 0.068
same,protein stability index,pdr5∆,2.03 ± 0.081
same,protein stability index,san1∆,1.53 ± 0.11
same,protein stability index,ubr1∆,1.74 ± 0.064
SSDGAYTEQFQHYKNNS [SSN2],protein stability index,doa10∆,2.99 ± 0.068
same,protein stability index,pdr5∆,3.03 ± 0.056
same,protein stability index,san1∆,3.02 ± 0.066
same,protein stability index,ubr1∆,3.06 ± 0.05
SSEALEAARICANKYMT [RPL10],protein stability index,doa10∆,1.35 ± 0.13
same,protein stability index,pdr5∆,1.82 ± 0.16
same,protein stability index,san1∆,1.36 ± 0.19
same,protein stability index,ubr1∆,1.29 ± 0.11
SSEIDRENVKSKDEPVS [SIR4],protein stability index,doa10∆,3.13 ± 0.15
same,protein stability index,pdr5∆,3.33 ± 0.12
same,protein stability index,san1∆,2.92 ± 0.082
same,protein stability index,ubr1∆,3.27 ± 0.086
SSEIKIYYNELQNKPDA [SIR4],protein stability index,doa10∆,2.91 ± 0.23
same,protein stability index,pdr5∆,3.3 ± 0.14
same,protein stability index,san1∆,2.46 ± 0.29
same,protein stability index,ubr1∆,3.23 ± 0.087
SSFYINHASMDVYNREL [BRR2],protein stability index,doa10∆,3.02 ± 0.12
same,protein stability index,pdr5∆,2.96 ± 0.1
same,protein stability index,san1∆,3.04 ± 0.076
same,protein stability index,ubr1∆,3.17 ± 0.09
SSGAGTVKLYLPEILNV [ECM29],protein stability index,doa10∆,1.45 ± 0.065
same,protein stability index,pdr5∆,1.72 ± 0.055
same,protein stability index,san1∆,2.02 ± 0.075
same,protein stability index,ubr1∆,1.47 ± 0.066
